Tests used:
[1] = target: T1, CD123 (interleukin-3 receptor alpha, IL3RA) (human, UniProt P26951 19-378)
T1 chain: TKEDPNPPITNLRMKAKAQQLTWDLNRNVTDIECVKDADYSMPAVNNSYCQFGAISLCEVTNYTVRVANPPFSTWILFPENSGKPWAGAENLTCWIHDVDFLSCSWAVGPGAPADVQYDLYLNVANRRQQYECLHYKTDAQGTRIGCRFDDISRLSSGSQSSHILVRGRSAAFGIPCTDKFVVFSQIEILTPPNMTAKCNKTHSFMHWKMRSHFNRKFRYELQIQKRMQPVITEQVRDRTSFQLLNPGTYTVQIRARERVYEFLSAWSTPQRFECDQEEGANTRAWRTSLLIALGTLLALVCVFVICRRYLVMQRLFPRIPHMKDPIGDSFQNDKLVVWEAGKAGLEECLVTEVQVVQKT

[2] = target: T1, CD123 (interleukin-3 receptor alpha, …)

B1: 7G3_H1L1_Fab_His (XENP 13761) (antibody, V domains shown)
VH: QVQLVQSGAEVKKPGASVKVSCKASGYTFTDYYMKWVRQAPGQSLEWMGDIIPSNGATFYNQKFQGRVTMTVDRSTSTAYMELSSLRSEDTAVYYCTRSHLLRASWFAYWGQGTLVTVSS
VL: DFVMTQSPDSLAVSLGERATINCKSSQSLLNSGNQKNYLTWYQQKPGQPPKLLIYWASTRESGVPDRFTGSGSGTDFTLTISSLQAEDVAVYYCQNDYSYPYTFGGGTKLEIKR
- Kd [1]: 2.08 nM
- Ka [2]: 4.81e+08 M⁻¹
